Legend:
[1] = biological target: [14C]oleoyl-ACP made from E. coli acyl carrier protein (E. coli) (UniProt P0A6A8); details: scale: times the E. coli background thioesterase activity
[2] = biological target: lauryl-ACP (12:0-ACP); details: scale: pmoles per min per microliter of cell lysate
[3] = biological target: [14C]oleoyl-ACP made from E. coli acyl carrier protein (E. coli) (UniProt P0A6A8); details: scale: pmoles per min per microliter of cell lysate
[4] = biological target: caproyl-ACP (10:0-ACP); details: scale: pmoles per min per microliter of cell lysate
[5] = biological target: [14C]stearoyl-ACP made from E. coli acyl carrier protein (E. coli) (UniProt P0A6A8)
[6] = biological target: [14C]oleoyl-ACP made from E. coli acyl carrier protein (E. coli) (UniProt P0A6A8)

## β-galactosidase fusion protein of the Brassica napus oleoyl-ACP thioesterase (p5C insert in pBluescript SK, correct orientation) (enzyme)
[1]
  Oleoyl-ACP thioesterase activity: 26

## β-galactosidase fusion protein of the Cuphea viscossisima oleoyl-ACP thioesterase precursor (p1A insert in pBluescript) (enzyme)
[2]
  activity per microliter of cell lysate: 0.1
[3]
  activity per microliter of cell lysate: 15.5
[4]
  activity per microliter of cell lysate: 0.05

B1: soybean seed acyl-ACP thioesterase, purified from developing soybean seeds (Glycine max cultivar Wye) (enzyme)
chain: RVEADPGTLADRLRVGSLTEDGLSYKEKFIVRSYEVGINKTATVETIANLLQEVGCNHAQSVGYSTDGFATTPTMRKLRLIWVTARMHIEIYKYPAWSDIVEIETWCQGEGRVGTRRDFILKDYATDEVIGRATSKWVMMNQDTRRLQKVSDDVKEEYLVFCPREPRLAIPEADSNSLKKIPKLEDPAQYSRLGLVPRRADLDMNQHVNNVTYIGWVLESMPQEIIDSHELQSITLDYRRECGQHDIVDSLTSVEAIQGGAEAVPELKGTNGSATAREDKHEHQQFLHLLRLSTEGLEINRGRTEWRKKAPR
[5]
  Net pmol/µL/min (standard acyl-ACP thioesterase assay): 4.07 pmol/µL/min

B2: soybean seed acyl-ACP thioesterase expressed from the phaseolin:soybean thioesterase transgene (pZPHTE1) in Brassica napus line 241 (enzyme)
chain: B1 chain
[6]
  Thioesterase Activity (nmole min^-1 embryo^-1), nmoles of 18:1-ACP hydrolyzed per embryo per minute (nmole min^-1 embryo^-1): 4.53
